The values that follow come from patent US20140087995A1 (published 2014).

B1: N^ε1-[2-[2-[2-[[2-[2-[2-[[(4S)-4-carboxy-4-(19-carboxynonadecanoylamino)butanoyl]amino]ethoxy]ethoxy]acetyl]amino]ethoxy]ethoxy]acetyl]-[Arg17,Pro21,Pro27,Pro34 … (peptide)
peptide: K([AEEA-AEEA-γGlu-C20 diacid])CNTATCATQRLANFLRHSSPNFGAIPSSTNVGPNTY-NH2
modifications: disulfide 2-7; N-terminus assumed
SMILES: CC[C@H](C)[C@H](NC(=O)[C@H](C)NC(=O)CNC(=O)[C@H](Cc1ccccc1)NC(=O)[C@H](CC(N)=O)NC(=O)[C@@H]1CCCN1C(=O)[C@H](CO)NC(=O)[C@H](CO)NC(=O)[C@H](Cc1c[nH]cn1)NC(=O)[C@H](CCCNC(=N)N)NC(=O)[C@H](CC(C)C)NC(=O)[C@H](Cc1ccccc1)NC(=O)[C@H](CC(N)=O)NC(=O)[C@H](C)NC(=O)[C@H](CC(C)C)NC(=O)[C@H](CCCNC(=N)N)NC(=O)[C@H](CCC(N)=O)NC(=O)[C@@H](NC(=O)[C@H](C)NC(=O)[C@@H]1CSSC[C@H](NC(=O)[C@@H](N)CCCCNC(=O)COCCOCCNC(=O)COCCOCCNC(=O)CC[C@H](NC(=O)CCCCCCCCCCCCCCCCCCC(=O)O)C(=O)O)C(=O)N[C@@H](CC(N)=O)C(=O)N[C@@H]([C@@H](C)O)C(=O)N[C@@H](C)C(=O)N[C@@H]([C@@H](C)O)C(=O)N1)[C@@H](C)O)C(=O)N1CCC[C@H]1C(=O)N[C@@H](CO)C(=O)N[C@@H](CO)C(=O)N[C@H](C(=O)N[C@@H](CC(N)=O)C(=O)N[C@H](C(=O)NCC(=O)N1CCC[C@H]1C(=O)N[C@@H](CC(N)=O)C(=O)N[C@H](C(=O)N[C@@H](Cc1ccc(O)cc1)C(N)=O)[C@@H](C)O)C(C)C)[C@@H](C)O
notes: also called compound 98
B2: N^ε1-[2-[2-[2-[[(4S)-4-carboxy-4-(19-carboxynonadecanoylamino)butanoyl]amino]ethoxy]ethoxy]acetyl]-[His14,Arg17,Pro21,Pro27,His34]-h-amylin (peptide)
peptide: K([AEEA-γGlu-C20 diacid])CNTATCATQRLAHFLRHSSPNFGAIPSSTNVGHNTY-NH2
modifications: disulfide 2-7; N-terminus assumed
SMILES: CC[C@H](C)[C@H](NC(=O)[C@H](C)NC(=O)CNC(=O)[C@H](Cc1ccccc1)NC(=O)[C@H](CC(N)=O)NC(=O)[C@@H]1CCCN1C(=O)[C@H](CO)NC(=O)[C@H](CO)NC(=O)[C@H](Cc1c[nH]cn1)NC(=O)[C@H](CCCNC(=N)N)NC(=O)[C@H](CC(C)C)NC(=O)[C@H](Cc1ccccc1)NC(=O)[C@H](Cc1c[nH]cn1)NC(=O)[C@H](C)NC(=O)[C@H](CC(C)C)NC(=O)[C@H](CCCNC(=N)N)NC(=O)[C@H](CCC(N)=O)NC(=O)[C@@H](NC(=O)[C@H](C)NC(=O)[C@@H]1CSSC[C@H](NC(=O)[C@@H](N)CCCCNC(=O)COCCOCCNC(=O)CC[C@H](NC(=O)CCCCCCCCCCCCCCCCCCC(=O)O)C(=O)O)C(=O)N[C@@H](CC(N)=O)C(=O)N[C@@H]([C@@H](C)O)C(=O)N[C@@H](C)C(=O)N[C@@H]([C@@H](C)O)C(=O)N1)[C@@H](C)O)C(=O)N1CCC[C@H]1C(=O)N[C@@H](CO)C(=O)N[C@@H](CO)C(=O)N[C@H](C(=O)N[C@@H](CC(N)=O)C(=O)N[C@H](C(=O)NCC(=O)N[C@@H](Cc1c[nH]cn1)C(=O)N[C@@H](CC(N)=O)C(=O)N[C@H](C(=O)N[C@@H](Cc1ccc(O)cc1)C(N)=O)[C@@H](C)O)C(C)C)[C@@H](C)O
notes: also called compound 80
B3: N^ε1-[2-[2-[2-[[(4S)-4-carboxy-4-(19-carboxynonadecanoylamino)butanoyl]amino]ethoxy]ethoxy]acetyl]-[Arg14,Arg17,Pro21,Pro27]-h-amylin (peptide)
peptide: K([AEEA-γGlu-C20 diacid])CNTATCATQRLARFLRHSSPNFGAIPSSTNVGSNTY-NH2
modifications: disulfide 2-7; N-terminus assumed
SMILES: CC[C@H](C)[C@H](NC(=O)[C@H](C)NC(=O)CNC(=O)[C@H](Cc1ccccc1)NC(=O)[C@H](CC(N)=O)NC(=O)[C@@H]1CCCN1C(=O)[C@H](CO)NC(=O)[C@H](CO)NC(=O)[C@H](Cc1c[nH]cn1)NC(=O)[C@H](CCCNC(=N)N)NC(=O)[C@H](CC(C)C)NC(=O)[C@H](Cc1ccccc1)NC(=O)[C@H](CCCNC(=N)N)NC(=O)[C@H](C)NC(=O)[C@H](CC(C)C)NC(=O)[C@H](CCCNC(=N)N)NC(=O)[C@H](CCC(N)=O)NC(=O)[C@@H](NC(=O)[C@H](C)NC(=O)[C@@H]1CSSC[C@H](NC(=O)[C@@H](N)CCCCNC(=O)COCCOCCNC(=O)CC[C@H](NC(=O)CCCCCCCCCCCCCCCCCCC(=O)O)C(=O)O)C(=O)N[C@@H](CC(N)=O)C(=O)N[C@@H]([C@@H](C)O)C(=O)N[C@@H](C)C(=O)N[C@@H]([C@@H](C)O)C(=O)N1)[C@@H](C)O)C(=O)N1CCC[C@H]1C(=O)N[C@@H](CO)C(=O)N[C@@H](CO)C(=O)N[C@H](C(=O)N[C@@H](CC(N)=O)C(=O)N[C@H](C(=O)NCC(=O)N[C@@H](CO)C(=O)N[C@@H](CC(N)=O)C(=O)N[C@H](C(=O)N[C@@H](Cc1ccc(O)cc1)C(N)=O)[C@@H](C)O)C(C)C)[C@@H](C)O
notes: also called compound 82
B4: N^ε1-[2-[2-[2-[[(4S)-4-carboxy-4-(19-carboxynonadecanoylamino)butanoyl]amino]ethoxy]ethoxy]acetyl]-[His14,Arg17,Pro21,Pro27,Arg34]-h-amylin (peptide)
peptide: K([AEEA-γGlu-C20 diacid])CNTATCATQRLAHFLRHSSPNFGAIPSSTNVGRNTY-NH2
modifications: disulfide 2-7; N-terminus assumed
SMILES: CC[C@H](C)[C@H](NC(=O)[C@H](C)NC(=O)CNC(=O)[C@H](Cc1ccccc1)NC(=O)[C@H](CC(N)=O)NC(=O)[C@@H]1CCCN1C(=O)[C@H](CO)NC(=O)[C@H](CO)NC(=O)[C@H](Cc1c[nH]cn1)NC(=O)[C@H](CCCNC(=N)N)NC(=O)[C@H](CC(C)C)NC(=O)[C@H](Cc1ccccc1)NC(=O)[C@H](Cc1c[nH]cn1)NC(=O)[C@H](C)NC(=O)[C@H](CC(C)C)NC(=O)[C@H](CCCNC(=N)N)NC(=O)[C@H](CCC(N)=O)NC(=O)[C@@H](NC(=O)[C@H](C)NC(=O)[C@@H]1CSSC[C@H](NC(=O)[C@@H](N)CCCCNC(=O)COCCOCCNC(=O)CC[C@H](NC(=O)CCCCCCCCCCCCCCCCCCC(=O)O)C(=O)O)C(=O)N[C@@H](CC(N)=O)C(=O)N[C@@H]([C@@H](C)O)C(=O)N[C@@H](C)C(=O)N[C@@H]([C@@H](C)O)C(=O)N1)[C@@H](C)O)C(=O)N1CCC[C@H]1C(=O)N[C@@H](CO)C(=O)N[C@@H](CO)C(=O)N[C@H](C(=O)N[C@@H](CC(N)=O)C(=O)N[C@H](C(=O)NCC(=O)N[C@@H](CCCNC(=N)N)C(=O)N[C@@H](CC(N)=O)C(=O)N[C@H](C(=O)N[C@@H](Cc1ccc(O)cc1)C(N)=O)[C@@H](C)O)C(C)C)[C@@H](C)O
notes: also called compound 84

Numbered stars: 1 amine (or outer) side, 2 acyl side, 3 side chain; on linkers, the order of the positions; unused ones are H or OH. Bridge positions count the residues as written; N and C are the ends. Side chains are listed from the residue outwards. Ends that are not written are not given here. * marks the point of attachment. C20 diacid = O=C(O)CCCCCCCCCCCCCCCCCCC(=O)*; γGlu = O=C(O)[C@H](CCC(=O)[*:2])N[*:1]; AEEA = NCCOCCOCC(=O)O

One assay concerns the target T1, human amylin 3(a) receptor (human calcitonin receptor co-expressed with RAMP-3) (human, UniProt P30988 25-474; O60896 24-148, limits assumed).
T1 sequence (looked up) 1: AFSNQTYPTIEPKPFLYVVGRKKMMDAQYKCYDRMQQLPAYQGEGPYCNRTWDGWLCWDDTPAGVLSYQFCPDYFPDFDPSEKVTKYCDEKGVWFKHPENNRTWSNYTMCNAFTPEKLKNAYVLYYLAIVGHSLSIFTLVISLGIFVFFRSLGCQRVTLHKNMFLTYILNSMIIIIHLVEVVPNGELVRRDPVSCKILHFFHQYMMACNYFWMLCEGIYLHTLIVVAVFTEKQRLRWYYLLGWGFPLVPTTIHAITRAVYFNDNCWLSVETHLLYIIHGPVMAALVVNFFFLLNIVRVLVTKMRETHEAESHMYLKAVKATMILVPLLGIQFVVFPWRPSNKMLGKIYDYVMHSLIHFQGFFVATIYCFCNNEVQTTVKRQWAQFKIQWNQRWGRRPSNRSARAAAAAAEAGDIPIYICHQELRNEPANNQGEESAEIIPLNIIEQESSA
T1 sequence (looked up) 2: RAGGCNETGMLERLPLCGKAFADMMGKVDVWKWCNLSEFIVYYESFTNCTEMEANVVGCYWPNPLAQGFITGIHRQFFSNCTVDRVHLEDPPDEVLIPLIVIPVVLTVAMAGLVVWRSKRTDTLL
As to the kind of experiment: cell-based or functional assay.
For the molecule B1, the “hAmylin-R funct. EC50” value was 84 pM.

On to B2, for which the “hAmylin-R funct. EC50” value came out at 139 pM.

Take B3: the “hAmylin-R funct. EC50” value worked out at 215 pM.

Take B4: the “hAmylin-R funct. EC50” value stood at 169 pM.

Another assay concerns the target T2, human calcitonin receptor (human, UniProt P30988 25-474).
T2 sequence (looked up): T1 sequence (looked up) 1
As to the kind of experiment: cell-based or functional assay.
In the case of B1, the “Ratio hCT/hAmylin funct.” value turned out to be 19.5 and the “hCTR funct. EC50” value came to 1630 pM.

On to B2, for which the “Ratio hCT/hAmylin funct.” value is 15.4 and the “hCTR funct. EC50” value came out at 2140 pM.

On to B3, for which the “Ratio hCT/hAmylin funct.” value was determined as 59.2 and the “hCTR funct. EC50” value is 12700 pM.

B4: the “Ratio hCT/hAmylin funct.” value turned out to be 32.5 and the “hCTR funct. EC50” value turned out to be 5490 pM.
